Source: patent US20250059284A1

Legend:
[1] = biological target: galectin-10 (Gal10), species and tag not stated for the assay (UniProt Q05315); assay: competition ELISA; negative control; competitor biotinylated g7B07 hFab (detected)
[2] = biological target: galectin-10 (Gal10), species and tag not stated for the assay (UniProt Q05315); assay: competition ELISA; negative control, set as 0% competition; competitor biotinylated g7B07 hFab

Chain of galectin-10 (Gal10), species and tag not stated for the assay (Q05315 2-142 limits assumed): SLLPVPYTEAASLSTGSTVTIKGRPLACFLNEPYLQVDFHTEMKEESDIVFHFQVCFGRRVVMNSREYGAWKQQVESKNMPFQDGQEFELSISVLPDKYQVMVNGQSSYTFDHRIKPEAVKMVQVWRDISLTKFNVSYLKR

**Q.** For Motavizumab in human Fab backbone, which Mean OD value [1] is on record?
**A.** The Mean OD value was 2.51 OD.

**Q.** And the % Competition against g7B07-Biot [2]?
**A.** Its % Competition against g7B07-Biot is 0%.
